Consider 1 substance from article PMC2662490.

By stoichiometry N is commonly meant a count of units in the complex or per binding partner.

The assay deals with FXR1P Nt-KH2–His6 (human). Description: SAXS.

FXR1P Nt-KH2–His6 (domain or fragment): the stoichiometry N was 2.
